For assay [1], the target named is 6162-H85-2t_6162-F78-2. Description: NGS-count immunoassay, capture antibody titration; average Kd; antibody pair.
In assay [2] the target is 6162-B78-8_MAM02-008. The assay is described as above.
For assay [3], the target named is 401-01R_6162-C57-1. Description: NGS-count immunoassay, capture antibody titration, single-site binding fit; average Kd; antibody pair.

B1: Analyte (other)
chain: KLTIESTPFNVAEGKEVLLLVHNLPQHLFGYSWYKGERVDGNRQIIGYVIGTQQATPGPAYSGREIIYPNASLLIQNIIQNDTGFYTLHVIKSDLVNEEATGQFRVYPELPKPSISSNNSKPVEDKDAVAFTCEPETQDATYLWWVNNQSLPVSPRLQLSNGNRTLTLFNVTRNDTASYKCETQNPVSARRSDSVILNVLYGPDAPTISPLNTSYRSGENLNLSCHAASNPPAQYSWFVNGTFQQSTQELFIPNITVNNSGSYTCQAHNSDTGLNRTTVTTITVYAEPPKPFITSNNSNPVEDEDAVALTCEPEIQNTTYLWWVNNQSLPVSPRLQLSNDNRTLTLLSVTRNDVGPYECGIQNELSVDHSDPVILNVLYGPDDPTISPSYTYYRPGVNLSLSCHAASNPPAQYSWLIDGNIQQHTQELFISNITEKNSGLYTCQANNSASGHSRTTVKTITVSAELPKPSISSNNSKPVEDKDAVAFTCEPEAQNTTYLWWVNGQSLPVSPRLQLSNGNRTLTLFNVTRNDARAYVCGIQNSVSANRSDPVTLDVLYGPDTPIISPPDSSYLSGANLNLSCHSASNPSPQYSWRINGIPQQHTQVLFIAKITPNNNGTYACFVSNLATGRNNSIVKSITVSASGTSPGLSA
Take B1: the results for the dissociation constant Kd in assay [1], in assay [2] and in assay [3] were 352 pM, 1940 pM and 906 pM, respectively.

The Kd is the free concentration of one partner at which half of the binding sites on the other are occupied at equilibrium, for simple one-to-one binding. Higher therefore signals weaker binding.
